The target in experiment [1] is purified His-tagged Stat3 (murine Stat3, recombinant, expressed in BL21(DE3)) (murine) (UniProt P42227). Kind of experiment: SPR (SensiQ), peptide as analyte over His-Stat3 immobilised on HisCap/Ni-NTA sensor chip.
Experiment [2] has the same target. Kind of experiment: fluorescence polarization competition; competitor/probe 5-carboxyfluorescein-GpYLPQTV-NH2 (10 nM), His-Stat3 150 nM. (Fluorescence polarisation rises when a labelled molecule tumbles more slowly, as on binding a larger partner.)

Chain of purified His-tagged Stat3 (murine Stat3, recombinant, expressed in BL21(DE3)) (murine) (P42227 whole entry): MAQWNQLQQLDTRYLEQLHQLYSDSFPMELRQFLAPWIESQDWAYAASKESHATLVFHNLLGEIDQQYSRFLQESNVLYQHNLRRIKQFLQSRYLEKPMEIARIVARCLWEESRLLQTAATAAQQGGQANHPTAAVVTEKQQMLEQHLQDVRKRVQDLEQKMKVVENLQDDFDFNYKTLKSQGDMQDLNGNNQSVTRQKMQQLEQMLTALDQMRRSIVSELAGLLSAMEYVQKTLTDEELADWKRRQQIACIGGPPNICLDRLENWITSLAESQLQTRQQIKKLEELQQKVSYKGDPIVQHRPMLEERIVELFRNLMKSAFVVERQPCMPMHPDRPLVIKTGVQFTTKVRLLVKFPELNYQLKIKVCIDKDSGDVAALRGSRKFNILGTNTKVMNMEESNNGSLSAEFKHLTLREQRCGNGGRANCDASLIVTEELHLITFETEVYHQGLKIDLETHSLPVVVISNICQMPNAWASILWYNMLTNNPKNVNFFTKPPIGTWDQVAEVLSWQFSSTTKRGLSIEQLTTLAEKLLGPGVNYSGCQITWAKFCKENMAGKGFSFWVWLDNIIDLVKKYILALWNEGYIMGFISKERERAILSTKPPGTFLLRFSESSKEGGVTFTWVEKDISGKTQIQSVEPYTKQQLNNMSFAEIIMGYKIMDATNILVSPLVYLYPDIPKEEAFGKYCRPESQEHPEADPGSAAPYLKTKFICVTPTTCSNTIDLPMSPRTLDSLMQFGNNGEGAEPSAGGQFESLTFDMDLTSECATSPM

A word on the Kd: it is the equilibrium constant for the complex coming apart. What is called IC50 is the concentration that gives 50% inhibition. On to “GpYLPQTV-NH2, high affinity Stat3-binding phosphoTyr peptide derived from the interleukin-6 receptor subunit gp-130”, for which, in experiment [1], the Kd was 24 nM. The IC50 in experiment [2] came to 300 nM.

(Values after US20120130079A1.)
